Assay: yeast display, Sf9 membrane polyspecificity reagent, FACS + sequencing; frameworks hold sequencing errors
Outline: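 Nanobodies came from a synthetic yeast display library in Saccharomyces cerevisiae BJ5465, induced with galactose for 36–48 hours and stained for 1 hour at 4 °C with 10% biotinylated, detergent-solubilized Sf9 membrane reagent. Cells were enriched on streptavidin microbeads and then FACS-sorted, with low and high (top ~1%) gates set on anti-HA fluorescence for expression and streptavidin fluorescence for reagent binding. Each polyreactivity label reflects the gate a clone came from. Genes were amplified by colony PCR, sequenced by MiSeq 2 × 250 and filtered by CDR length.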

Sequence | polyreactivity (PSR sort gate)
QVQHVESGGGLVQAGGSLRLSCAASGSTFWGYAMGWYRQAPGKERELVAAINWIGGSDTFYADSVKGRFTISRDNAKNTVYLQMNSLKPEDTAVYYCAATYYNLPYSWGYDSWGQGSQVTVSS | low polyreactivity
QVQLVESGGGLVQAGGSLRLSCAASGRIFHYYAMGWYRQAPGKERELVAGITSGGSTYYADSVKGRFTISRDNAKNTVYLQMNSLKPEDTAVYYCATTRYGGSRRYRPYDRERDYWGLGTQVTVSS | low polyreactivity
KVQLVESGGGLVQAGGSLRLSCAPSGSIFPLNARGWYSQAPGKERELVAAISESGGRTYYADSVKGRFTISRDNAKNTVYLQMNSLNPADTAVYHCATVRLARKSAPYDYWGQGTQVTVSS | high polyreactivity
QVQLVESGGGLFQAGGSLRLSCAASGSTLVKNAMGWYRQAPGKERELVAAIDYNDDITYYADSVKGRFTISRDTAKNTVYLQMNSLKPEDTAVYYCAAEPYAGPELDYWGQGTQVTVSS | high polyreactivity
QVQLVESGGGLVQAGGSLRLSCAASGSTFGQYVMGWYRQAPGKERELVAAITYSGGSTYYADSVKGRFTISRDNAKNTVYLQMNSLKPEDTAVYYCAARGRRDGYSRVPRGYWGQGTQVTVSS | high polyreactivity
QVQLVESGGGLVQAGGSLRLSCAASGSIFYKYAMGWYRQAPGKEREFVAAITGSGVRTYYADSVKGRFTISRDNAKNTVYLQMNRLKPDDTAVYYCAASSYGYDYWGQGTQVTVSS | high polyreactivity
QVQLVESGGGLVQAGGSLRLSCAASGFIIYYNAMGWYRQAPGKEREFVAGISFSGDGRTYYADSVKGRFTISRDNAKNTVYLQMNSLKPEDTAVYYCAAPHRSRTHELDYWGQGTQVTVSS | low polyreactivity
QVQLVESGGCLVQAGGSLRLSCAASGSIFGGNAMGWSRQAPGKEREFVAAITVSDGSTYYADSVKGRFTISRDNAKKTVYLQMNSLKPEDTAVYYCAAGGFYYPHYDYWGQGTQVTVSS | low polyreactivity
QVQLVESGGGLVQAGGSLRLSCAASGRIFTRYAMGWYRPAPGKERELVAVIRYSGGSTYYADSVKGRFTISRDNAKNTVYLQMNSLKPEDTAVYYCAAYARGVRRYRRYDYWGQGTQVTVSS | high polyreactivity
QVQLVESGGGLVQAGGSLRLSCAASGITFRLYAMGWSRQAPGKEREFVAAISRRGGSTYYADSVKGRFTISRDNAKNSVYLQMNSLKPEDTAVYYCARYGLVYALGYWGQGTQVTVSS | high polyreactivity
QGQLVESGGGLVQAGGSLRLSCAASGFTFDYYAMGWYRQAPGKARELVAAITTAASTNYADSVKGRFTISRDTAKNTVYFQMNSLKPEDTAVYYCAASWWPWYISWDDYWGQGTQVTVSS | high polyreactivity
QVQLVESGGGLVQAGGSLRLSCAASGSIFNQYAMGWHRQAPGKERELVAAISSSGGSTYYADSVKGRFTISRDNAKNTVYLQMNSLKPEDTAVYYCAARPSGRGYYLLGYWGQGTQVTVSS | low polyreactivity
QVQLVESGGGLVQAGGSLRLSCAASGSTFTENTMGWYRQAPGKERELVAAITDSGGSTYYADSVKGRFTISRDNAKNTVYLQMNSLKPEDTAVYYCAADVQPDTRSTPEMDYWGQGTQVTVSS | low polyreactivity
QGQLVESRGGLVQAGGSLRLICAASGFIFFIKSMGWYRQAPGKERELVAAINWTGGSTYADSVKGRFTISRDNAKNTVYLQMNSLKPEDTAVYYCAADPWDIYRRLSQGDHDYWGQGTQVTVSS | low polyreactivity
QVQLVESGGGLVQAGGSLRLSCAASGFTFRGNAMGWYRQAPGKERELVATISRGGNTNYADSVKGRFTISRDNAKNTVYLLMNSLKPEDTAVYYFAAVSYIRSKVSYNYWGNGTQVTVSS | low polyreactivity
QVQLVESGGGLVQAGGSLRLRCAASGRNFVANGKGWYRQAPGKERELVAAINDGDDTYYADSVKGRFTISRDNAQNTVYLQMNSLKPEDTEVYYCAADIIYGYEVYTYTSDYWGQGTQVTVSS | low polyreactivity
QVQLVESGGGLVQAGGSLRLSCAASGFTFDIYAMGWYRQAPGTERELVATISFTGDTTSYADSVKGRFTISRDNAKTTVYLQMNSLKPEDTAVYYCAADGSYPLSVGRENLHYAEFDYWGQGTQVTVSS | low polyreactivity
QVQHEESGGGLVQAGGRLRLSCAASGRTFFSNAMGWYRQAPGKERELVAAISNGDNTYYADSVKGRFTISRDNAKNTVYLQMNSLKPEDTAVYYCATAYPEWAVWGYDYWGQGTQVTVSS | low polyreactivity
QVQLQESGGGLVQAGGSLRLSCAASGSISGPHVMGWYRQAPGKEREFVAAINVGANTYYADNVKGRFTISRDNAINTVYLQMNSLKTEDTAVYYCAAVYYGDIGHEYWGQGTQVTVSC | low polyreactivity
QVQLVESGGGLVQAGGSLRLSSAASGSIFGDYAMGWYRQSPGKERELVAAISSDGSTNYADSVKGRFTISRDNAKNTVYLQMNSLKPEDTAVYYCAADTGGWYFYSYYYWGQGTQVTVSS | low polyreactivity
QVQLVESGGGLVQAGGSLRLSCAASGRTFYVYTMGWYRQAPGKERELVAAISSGGTTNYADSVKGRFTISRDNAKNTVYLQMNSLKPEDTAVYYCATERGYRYRGPLRVNYDYWGQGTQVTVSS | low polyreactivity

From the nanobody polyreactivity screen of Harvey et al. (2022)
